# Source: patent US20140087995A1 (published 2014)
# Numbered stars: 1 amine (or outer) side, 2 acyl side, 3 side chain; on linkers, the order of the positions; unused ones are H or OH. Bridge positions count the residues as written; N and C are the ends. Side chains are listed from the residue outwards. Ends that are not written are not given here. * marks the point of attachment. C20 diacid = O=C(O)CCCCCCCCCCCCCCCCCCC(=O)*; γGlu = O=C(O)[C@H](CCC(=O)[*:2])N[*:1]; AEEA = NCCOCCOCC(=O)O
# T1: human calcitonin receptor (human, UniProt P30988 25-474)
# T1 sequence (looked up): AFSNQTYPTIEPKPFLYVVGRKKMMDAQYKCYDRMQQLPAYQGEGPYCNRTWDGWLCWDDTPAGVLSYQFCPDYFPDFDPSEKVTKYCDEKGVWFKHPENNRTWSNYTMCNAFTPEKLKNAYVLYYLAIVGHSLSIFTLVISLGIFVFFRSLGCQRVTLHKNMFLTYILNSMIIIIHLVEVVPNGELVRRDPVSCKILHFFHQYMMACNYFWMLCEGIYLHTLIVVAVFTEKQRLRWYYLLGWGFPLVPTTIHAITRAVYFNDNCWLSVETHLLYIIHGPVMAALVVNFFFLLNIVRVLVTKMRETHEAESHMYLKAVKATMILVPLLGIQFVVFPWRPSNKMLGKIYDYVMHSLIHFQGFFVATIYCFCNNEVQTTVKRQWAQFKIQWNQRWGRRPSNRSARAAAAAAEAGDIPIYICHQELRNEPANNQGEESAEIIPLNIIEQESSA
# T2: human amylin receptor (amylin 3(a) receptor: human calcitonin receptor plus RAMP-3) (human, UniProt P30988 25-474; O60896 24-148, limits assumed)
# T2 sequence (looked up) 1: T1 sequence (looked up)
# T2 sequence (looked up) 2: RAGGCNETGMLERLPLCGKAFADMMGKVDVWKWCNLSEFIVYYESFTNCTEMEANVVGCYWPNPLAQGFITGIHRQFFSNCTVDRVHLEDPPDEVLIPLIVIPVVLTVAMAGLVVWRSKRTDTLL
# B1: N^ε1-[2-[2-[2-[[(4S)-4-carboxy-4-(19-carboxynonadecanoylamino)butanoyl]amino]ethoxy]ethoxy]acetyl]-[Arg17,Pro21,Pro27,Pro29,Pro31]-h-amylin (peptide)
# peptide: K([AEEA-γGlu-C20 diacid])CNTATCATQRLANFLRHSSPNFGAIPSPTPVGSNTY-NH2
# modifications: disulfide 2-7; N-terminus assumed
# SMILES: CC[C@H](C)[C@H](NC(=O)[C@H](C)NC(=O)CNC(=O)[C@H](Cc1ccccc1)NC(=O)[C@H](CC(N)=O)NC(=O)[C@@H]1CCCN1C(=O)[C@H](CO)NC(=O)[C@H](CO)NC(=O)[C@H](Cc1c[nH]cn1)NC(=O)[C@H](CCCNC(=N)N)NC(=O)[C@H](CC(C)C)NC(=O)[C@H](Cc1ccccc1)NC(=O)[C@H](CC(N)=O)NC(=O)[C@H](C)NC(=O)[C@H](CC(C)C)NC(=O)[C@H](CCCNC(=N)N)NC(=O)[C@H](CCC(N)=O)NC(=O)[C@@H](NC(=O)[C@H](C)NC(=O)[C@@H]1CSSC[C@H](NC(=O)[C@@H](N)CCCCNC(=O)COCCOCCNC(=O)CC[C@H](NC(=O)CCCCCCCCCCCCCCCCCCC(=O)O)C(=O)O)C(=O)N[C@@H](CC(N)=O)C(=O)N[C@@H]([C@@H](C)O)C(=O)N[C@@H](C)C(=O)N[C@@H]([C@@H](C)O)C(=O)N1)[C@@H](C)O)C(=O)N1CCC[C@H]1C(=O)N[C@@H](CO)C(=O)N1CCC[C@H]1C(=O)N[C@H](C(=O)N1CCC[C@H]1C(=O)N[C@H](C(=O)NCC(=O)N[C@@H](CO)C(=O)N[C@@H](CC(N)=O)C(=O)N[C@H](C(=O)N[C@@H](Cc1ccc(O)cc1)C(N)=O)[C@@H](C)O)C(C)C)[C@@H](C)O
# notes: Synthetic acylated analogue of human amylin; also called compound 54
# B2: N^ε1-[2-[2-[2-[[(4S)-4-carboxy-4-(19-carboxynonadecanoylamino)butanoyl]amino]ethoxy]ethoxy]acetyl]-[Arg17,Pro21,Pro27,Pro31]-h-amylin (peptide)
# peptide: K([AEEA-γGlu-C20 diacid])CNTATCATQRLANFLRHSSPNFGAIPSSTPVGSNTY-NH2
# modifications: disulfide 2-7; N-terminus assumed
# SMILES: CC[C@H](C)[C@H](NC(=O)[C@H](C)NC(=O)CNC(=O)[C@H](Cc1ccccc1)NC(=O)[C@H](CC(N)=O)NC(=O)[C@@H]1CCCN1C(=O)[C@H](CO)NC(=O)[C@H](CO)NC(=O)[C@H](Cc1c[nH]cn1)NC(=O)[C@H](CCCNC(=N)N)NC(=O)[C@H](CC(C)C)NC(=O)[C@H](Cc1ccccc1)NC(=O)[C@H](CC(N)=O)NC(=O)[C@H](C)NC(=O)[C@H](CC(C)C)NC(=O)[C@H](CCCNC(=N)N)NC(=O)[C@H](CCC(N)=O)NC(=O)[C@@H](NC(=O)[C@H](C)NC(=O)[C@@H]1CSSC[C@H](NC(=O)[C@@H](N)CCCCNC(=O)COCCOCCNC(=O)CC[C@H](NC(=O)CCCCCCCCCCCCCCCCCCC(=O)O)C(=O)O)C(=O)N[C@@H](CC(N)=O)C(=O)N[C@@H]([C@@H](C)O)C(=O)N[C@@H](C)C(=O)N[C@@H]([C@@H](C)O)C(=O)N1)[C@@H](C)O)C(=O)N1CCC[C@H]1C(=O)N[C@@H](CO)C(=O)N[C@@H](CO)C(=O)N[C@H](C(=O)N1CCC[C@H]1C(=O)N[C@H](C(=O)NCC(=O)N[C@@H](CO)C(=O)N[C@@H](CC(N)=O)C(=O)N[C@H](C(=O)N[C@@H](Cc1ccc(O)cc1)C(N)=O)[C@@H](C)O)C(C)C)[C@@H](C)O
# notes: Synthetic acylated analogue of human amylin; also called compound 49
# Experiments:
# [1] = target: T1, human calcitonin receptor; assay: cell-based or functional assay
# [2] = target: T2, human amylin receptor (amylin 3(a) …); assay: cell-based or functional assay
Binder,hCTR funct. EC50 [1] [nM],Ratio hCT/hAmylin funct. [2] [ratio],hAmylin-R funct. EC50 [2] [nM]
B1,0.987,9.6,0.103
B2,2.39,22.5,0.106
